Data: patent US20140087995A1 (published 2014)
Numbered stars: 1 amine (or outer) side, 2 acyl side, 3 side chain; on linkers, the order of the positions; unused ones are H or OH. Bridge positions count the residues as written; N and C are the ends. Side chains are listed from the residue outwards. Ends that are not written are not given here. * marks the point of attachment. C20 diacid = O=C(O)CCCCCCCCCCCCCCCCCCC(=O)*; γGlu = O=C(O)[C@H](CCC(=O)[*:2])N[*:1]

T1: human amylin receptor (human, UniProt P30988 25-474; O60896 24-148, limits assumed)
T1 construct: whole, on cells; Calcitonin receptor plus RAMP-3 gives the amylin 3(a) receptor; membranes of Amylin 3(a)/CRE-luc cells were used; also called hAmylin-R; hAmylinR
T1 sequence (looked up) 1: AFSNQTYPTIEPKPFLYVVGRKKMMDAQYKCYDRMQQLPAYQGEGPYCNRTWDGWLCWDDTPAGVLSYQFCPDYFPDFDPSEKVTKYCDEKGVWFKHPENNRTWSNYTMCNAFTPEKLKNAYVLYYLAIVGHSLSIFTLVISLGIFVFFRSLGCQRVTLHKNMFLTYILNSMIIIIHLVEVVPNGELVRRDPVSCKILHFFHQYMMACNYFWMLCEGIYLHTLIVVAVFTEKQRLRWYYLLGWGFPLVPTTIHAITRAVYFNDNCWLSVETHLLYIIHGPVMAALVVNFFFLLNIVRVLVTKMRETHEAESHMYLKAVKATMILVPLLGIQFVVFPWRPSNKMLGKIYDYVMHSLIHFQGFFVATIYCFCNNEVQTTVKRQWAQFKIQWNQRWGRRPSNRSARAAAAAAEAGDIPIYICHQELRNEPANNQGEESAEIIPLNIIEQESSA
T1 sequence (looked up) 2: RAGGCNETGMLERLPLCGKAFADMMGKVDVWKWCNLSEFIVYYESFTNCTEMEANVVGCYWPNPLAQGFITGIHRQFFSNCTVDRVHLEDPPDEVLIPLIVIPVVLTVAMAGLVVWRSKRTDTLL

B1: N^ε1-[(4S)-4-carboxy-4-(19-carboxynonadecanoylamino)butanoyl]-[Ala14,Arg17,Pro21,Pro27,Pro34]-h-amylin (peptide)
peptide: K([γGlu-C20 diacid])CNTATCATQRLAAFLRHSSPNFGAIPSSTNVGPNTY-NH2
modifications: disulfide 2-7; N-terminus assumed
SMILES: CC[C@H](C)[C@H](NC(=O)[C@H](C)NC(=O)CNC(=O)[C@H](Cc1ccccc1)NC(=O)[C@H](CC(N)=O)NC(=O)[C@@H]1CCCN1C(=O)[C@H](CO)NC(=O)[C@H](CO)NC(=O)[C@H](Cc1c[nH]cn1)NC(=O)[C@H](CCCNC(=N)N)NC(=O)[C@H](CC(C)C)NC(=O)[C@H](Cc1ccccc1)NC(=O)[C@H](C)NC(=O)[C@H](C)NC(=O)[C@H](CC(C)C)NC(=O)[C@H](CCCNC(=N)N)NC(=O)[C@H](CCC(N)=O)NC(=O)[C@@H](NC(=O)[C@H](C)NC(=O)[C@@H]1CSSC[C@H](NC(=O)[C@@H](N)CCCCNC(=O)CC[C@H](NC(=O)CCCCCCCCCCCCCCCCCCC(=O)O)C(=O)O)C(=O)N[C@@H](CC(N)=O)C(=O)N[C@@H]([C@@H](C)O)C(=O)N[C@@H](C)C(=O)N[C@@H]([C@@H](C)O)C(=O)N1)[C@@H](C)O)C(=O)N1CCC[C@H]1C(=O)N[C@@H](CO)C(=O)N[C@@H](CO)C(=O)N[C@H](C(=O)N[C@@H](CC(N)=O)C(=O)N[C@H](C(=O)NCC(=O)N1CCC[C@H]1C(=O)N[C@@H](CC(N)=O)C(=O)N[C@H](C(=O)N[C@@H](Cc1ccc(O)cc1)C(N)=O)[C@@H](C)O)C(C)C)[C@@H](C)O
notes: also called 14A, 17R, 21P, 27P, 34P
B2: N^ε1-[(4S)-4-carboxy-4-(19-carboxynonadecanoylamino)butanoyl]-[Arg14,Arg17,Pro21,Pro27,Pro34]-h-amylin (peptide)
peptide: K([γGlu-C20 diacid])CNTATCATQRLARFLRHSSPNFGAIPSSTNVGPNTY-NH2
modifications: disulfide 2-7; N-terminus assumed
SMILES: CC[C@H](C)[C@H](NC(=O)[C@H](C)NC(=O)CNC(=O)[C@H](Cc1ccccc1)NC(=O)[C@H](CC(N)=O)NC(=O)[C@@H]1CCCN1C(=O)[C@H](CO)NC(=O)[C@H](CO)NC(=O)[C@H](Cc1c[nH]cn1)NC(=O)[C@H](CCCNC(=N)N)NC(=O)[C@H](CC(C)C)NC(=O)[C@H](Cc1ccccc1)NC(=O)[C@H](CCCNC(=N)N)NC(=O)[C@H](C)NC(=O)[C@H](CC(C)C)NC(=O)[C@H](CCCNC(=N)N)NC(=O)[C@H](CCC(N)=O)NC(=O)[C@@H](NC(=O)[C@H](C)NC(=O)[C@@H]1CSSC[C@H](NC(=O)[C@@H](N)CCCCNC(=O)CC[C@H](NC(=O)CCCCCCCCCCCCCCCCCCC(=O)O)C(=O)O)C(=O)N[C@@H](CC(N)=O)C(=O)N[C@@H]([C@@H](C)O)C(=O)N[C@@H](C)C(=O)N[C@@H]([C@@H](C)O)C(=O)N1)[C@@H](C)O)C(=O)N1CCC[C@H]1C(=O)N[C@@H](CO)C(=O)N[C@@H](CO)C(=O)N[C@H](C(=O)N[C@@H](CC(N)=O)C(=O)N[C@H](C(=O)NCC(=O)N1CCC[C@H]1C(=O)N[C@@H](CC(N)=O)C(=O)N[C@H](C(=O)N[C@@H](Cc1ccc(O)cc1)C(N)=O)[C@@H](C)O)C(C)C)[C@@H](C)O
notes: also called 14R, 17R, 21P, 27P, 34P
B3: N^ε1-[(4S)-4-carboxy-4-(19-carboxynonadecanoylamino)butanoyl]-[Asp14,Arg17,Pro21,Pro27,Pro34,Glu35]-h-amylin (peptide)
peptide: K([γGlu-C20 diacid])CNTATCATQRLADFLRHSSPNFGAIPSSTNVGPETY-NH2
modifications: disulfide 2-7; N-terminus assumed
SMILES: CC[C@H](C)[C@H](NC(=O)[C@H](C)NC(=O)CNC(=O)[C@H](Cc1ccccc1)NC(=O)[C@H](CC(N)=O)NC(=O)[C@@H]1CCCN1C(=O)[C@H](CO)NC(=O)[C@H](CO)NC(=O)[C@H](Cc1c[nH]cn1)NC(=O)[C@H](CCCNC(=N)N)NC(=O)[C@H](CC(C)C)NC(=O)[C@H](Cc1ccccc1)NC(=O)[C@H](CC(=O)O)NC(=O)[C@H](C)NC(=O)[C@H](CC(C)C)NC(=O)[C@H](CCCNC(=N)N)NC(=O)[C@H](CCC(N)=O)NC(=O)[C@@H](NC(=O)[C@H](C)NC(=O)[C@@H]1CSSC[C@H](NC(=O)[C@@H](N)CCCCNC(=O)CC[C@H](NC(=O)CCCCCCCCCCCCCCCCCCC(=O)O)C(=O)O)C(=O)N[C@@H](CC(N)=O)C(=O)N[C@@H]([C@@H](C)O)C(=O)N[C@@H](C)C(=O)N[C@@H]([C@@H](C)O)C(=O)N1)[C@@H](C)O)C(=O)N1CCC[C@H]1C(=O)N[C@@H](CO)C(=O)N[C@@H](CO)C(=O)N[C@H](C(=O)N[C@@H](CC(N)=O)C(=O)N[C@H](C(=O)NCC(=O)N1CCC[C@H]1C(=O)N[C@@H](CCC(=O)O)C(=O)N[C@H](C(=O)N[C@@H](Cc1ccc(O)cc1)C(N)=O)[C@@H](C)O)C(C)C)[C@@H](C)O
notes: also called 14D, 17R, 21P, 27P, 34P, 35E
B4: N^ε1-[(4S)-4-carboxy-4-(19-carboxynonadecanoylamino)butanoyl]-[Arg17,Pro21,Pro27,His34]-h-amylin (peptide)
peptide: K([γGlu-C20 diacid])CNTATCATQRLANFLRHSSPNFGAIPSSTNVGHNTY-NH2
modifications: disulfide 2-7; N-terminus assumed
SMILES: CC[C@H](C)[C@H](NC(=O)[C@H](C)NC(=O)CNC(=O)[C@H](Cc1ccccc1)NC(=O)[C@H](CC(N)=O)NC(=O)[C@@H]1CCCN1C(=O)[C@H](CO)NC(=O)[C@H](CO)NC(=O)[C@H](Cc1c[nH]cn1)NC(=O)[C@H](CCCNC(=N)N)NC(=O)[C@H](CC(C)C)NC(=O)[C@H](Cc1ccccc1)NC(=O)[C@H](CC(N)=O)NC(=O)[C@H](C)NC(=O)[C@H](CC(C)C)NC(=O)[C@H](CCCNC(=N)N)NC(=O)[C@H](CCC(N)=O)NC(=O)[C@@H](NC(=O)[C@H](C)NC(=O)[C@@H]1CSSC[C@H](NC(=O)[C@@H](N)CCCCNC(=O)CC[C@H](NC(=O)CCCCCCCCCCCCCCCCCCC(=O)O)C(=O)O)C(=O)N[C@@H](CC(N)=O)C(=O)N[C@@H]([C@@H](C)O)C(=O)N[C@@H](C)C(=O)N[C@@H]([C@@H](C)O)C(=O)N1)[C@@H](C)O)C(=O)N1CCC[C@H]1C(=O)N[C@@H](CO)C(=O)N[C@@H](CO)C(=O)N[C@H](C(=O)N[C@@H](CC(N)=O)C(=O)N[C@H](C(=O)NCC(=O)N[C@@H](Cc1c[nH]cn1)C(=O)N[C@@H](CC(N)=O)C(=O)N[C@H](C(=O)N[C@@H](Cc1ccc(O)cc1)C(N)=O)[C@@H](C)O)C(C)C)[C@@H](C)O
notes: also called 17R, 21P, 27P, 34H
B5: N^ε1-[(4S)-4-carboxy-4-(19-carboxynonadecanoylamino)butanoyl]-[Arg17,Pro21,Pro27,Arg34]-h-amylin (peptide)
peptide: K([γGlu-C20 diacid])CNTATCATQRLANFLRHSSPNFGAIPSSTNVGRNTY-NH2
modifications: disulfide 2-7; N-terminus assumed
SMILES: CC[C@H](C)[C@H](NC(=O)[C@H](C)NC(=O)CNC(=O)[C@H](Cc1ccccc1)NC(=O)[C@H](CC(N)=O)NC(=O)[C@@H]1CCCN1C(=O)[C@H](CO)NC(=O)[C@H](CO)NC(=O)[C@H](Cc1c[nH]cn1)NC(=O)[C@H](CCCNC(=N)N)NC(=O)[C@H](CC(C)C)NC(=O)[C@H](Cc1ccccc1)NC(=O)[C@H](CC(N)=O)NC(=O)[C@H](C)NC(=O)[C@H](CC(C)C)NC(=O)[C@H](CCCNC(=N)N)NC(=O)[C@H](CCC(N)=O)NC(=O)[C@@H](NC(=O)[C@H](C)NC(=O)[C@@H]1CSSC[C@H](NC(=O)[C@@H](N)CCCCNC(=O)CC[C@H](NC(=O)CCCCCCCCCCCCCCCCCCC(=O)O)C(=O)O)C(=O)N[C@@H](CC(N)=O)C(=O)N[C@@H]([C@@H](C)O)C(=O)N[C@@H](C)C(=O)N[C@@H]([C@@H](C)O)C(=O)N1)[C@@H](C)O)C(=O)N1CCC[C@H]1C(=O)N[C@@H](CO)C(=O)N[C@@H](CO)C(=O)N[C@H](C(=O)N[C@@H](CC(N)=O)C(=O)N[C@H](C(=O)NCC(=O)N[C@@H](CCCNC(=N)N)C(=O)N[C@@H](CC(N)=O)C(=O)N[C@H](C(=O)N[C@@H](Cc1ccc(O)cc1)C(N)=O)[C@@H](C)O)C(C)C)[C@@H](C)O
notes: also called 17R, 21P, 27P, 34R
B6: N^ε1-[(4S)-4-carboxy-4-(19-carboxynonadecanoylamino)butanoyl]-[Arg17,Pro21,Pro27,His35]-h-amylin (peptide)
peptide: K([γGlu-C20 diacid])CNTATCATQRLANFLRHSSPNFGAIPSSTNVGSHTY-NH2
modifications: disulfide 2-7; N-terminus assumed
SMILES: CC[C@H](C)[C@H](NC(=O)[C@H](C)NC(=O)CNC(=O)[C@H](Cc1ccccc1)NC(=O)[C@H](CC(N)=O)NC(=O)[C@@H]1CCCN1C(=O)[C@H](CO)NC(=O)[C@H](CO)NC(=O)[C@H](Cc1c[nH]cn1)NC(=O)[C@H](CCCNC(=N)N)NC(=O)[C@H](CC(C)C)NC(=O)[C@H](Cc1ccccc1)NC(=O)[C@H](CC(N)=O)NC(=O)[C@H](C)NC(=O)[C@H](CC(C)C)NC(=O)[C@H](CCCNC(=N)N)NC(=O)[C@H](CCC(N)=O)NC(=O)[C@@H](NC(=O)[C@H](C)NC(=O)[C@@H]1CSSC[C@H](NC(=O)[C@@H](N)CCCCNC(=O)CC[C@H](NC(=O)CCCCCCCCCCCCCCCCCCC(=O)O)C(=O)O)C(=O)N[C@@H](CC(N)=O)C(=O)N[C@@H]([C@@H](C)O)C(=O)N[C@@H](C)C(=O)N[C@@H]([C@@H](C)O)C(=O)N1)[C@@H](C)O)C(=O)N1CCC[C@H]1C(=O)N[C@@H](CO)C(=O)N[C@@H](CO)C(=O)N[C@H](C(=O)N[C@@H](CC(N)=O)C(=O)N[C@H](C(=O)NCC(=O)N[C@@H](CO)C(=O)N[C@@H](Cc1c[nH]cn1)C(=O)N[C@H](C(=O)N[C@@H](Cc1ccc(O)cc1)C(N)=O)[C@@H](C)O)C(C)C)[C@@H](C)O
notes: also called 17R, 21P, 27P, 35H

Each binder was assayed against T1, human amylin receptor (assay: SPA competition binding, displacement of 125I-rat amylin from membranes with human amylin 3(a) receptor (Assay V)).
Procedure, shortened: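 Cell membranes were prepared by homogenisation in Na-HEPES/EDTA buffer, pH 7.4, and stored at −80° C. They were then coupled to SPA beads at 35 ng/μL final and exposed to compounds in assay buffer containing CaCl2, MgCl₂, OA and Tween20. After 120 min at 25° C, plates were counted and IC₅₀ derived.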
Work on B1 yielded an IC50 of 0.148 nM. In the case of B2, the IC50 is reported as 0.649 nM. For B3, the IC50 was 0.196 nM. B4 showed an IC50 of 0.428 nM. In the case of B5, the IC50 is reported as 0.79 nM. B6 was tested, and the IC50 was 0.695 nM.
